Reference: patent publication US10758613B2, “Combination therapies using anti-metabolites and agents that target tumor-associated stroma or tumor cells” (BIOMED VALLEY DISCOVERIES, INC., priority 2014, dated 2020)
Where a chain is given by its changes, count along the chain named. In names and notes the source's numbering stands. Where a SMILES comes first, the peptide text is derived from it. [ ]: non-standard residue; d: D form. The star is where a group is joined. Dolaproine = CO[C@@H]([C@@H]1CCCN1)[C@@H](C)C(=O)O; Dil = CC[C@H](C)[C@H](NC)[C@@H](CC(=O)O)OC; X1 = C[C@@H](N*)[C@@H](O)c1ccccc1; NMeV = CN[C@H](C(=O)O)C(C)C

Experiments:
[1] = tested on: H460 human non-small cell lung carcinoma xenograft; assay: M830 alone and with gemcitabine, cisplatin or radiation in H460 human non-small cell lung carcinoma xenograft model; assay type: in vivo, nude mice; settings: 58-day study, survival (TTE), logrank
Source text: (§1) The statistical tests were not adjusted for multiple comparisons.
Treatment began on Day 1 in eight groups of nude mice (n=10) with established subcutaneous H460 tumors of 75-126 mm^3. […] The study endpoint was a tumor volume of 2000 mm^3 or the final day, Day 58, whichever came first. […] The median TTE for controls was 15.6 days, establishing a maximum possible TGD of 42.4 days (272%) for the 58-day study.

[2] = tested on: OVCAR3 ovarian cancer model; assay: M825 and M825-MMAE in OVCAR3 ovarian cancer model; assay type: in vivo, mice; settings: free MMAE at 0.2 mg/kg, equivalent to maximum MMAE in the 10 mg/kg ADC group
Protocol: Treatment initiated when tumor volume reached approximately 120 mm^3. M825 was given i.v. at 10 mg/kg and M825-MMAE was given i.v. at 1, 3, or 10 mg/kg, 2 times per week for 3.5 weeks. […] The 10 mg/kg ADC group was redosed on Day 56, 2 times per week.

hTEM8-AP = assay: Biocore affinity measurements of anti-TEM8 Fabs, hTEM8-AP; assay type: binding, human; settings: Fab
hTEM8-AP, sequence (Q9H6X2 33-321): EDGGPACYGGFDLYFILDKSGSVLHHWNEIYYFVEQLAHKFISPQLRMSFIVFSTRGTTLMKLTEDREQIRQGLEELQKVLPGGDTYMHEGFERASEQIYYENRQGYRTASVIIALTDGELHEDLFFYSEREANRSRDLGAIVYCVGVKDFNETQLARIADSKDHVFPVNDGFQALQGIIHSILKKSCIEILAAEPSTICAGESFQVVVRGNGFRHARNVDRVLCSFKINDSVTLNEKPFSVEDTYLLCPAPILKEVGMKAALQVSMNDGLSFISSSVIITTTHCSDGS

[3] = Pharmacokinetics of TEM8 antibodies in mouse, single dose; assay type: in vivo
Source text: (§2) Tables 8 and 9 show pharmacokinetic properties of TEM8 antibodies according to the present invention in mouse for single dose (Table 8) and multiple dose (Table 9) treatments.

[4] = Pharmacokinetics of TEM8 antibodies in mouse, multiple dose; assay type: in vivo
Source text: as §2

3T3 fibroblasts = assay: Contractility of 3T3 fibroblasts in the presence of TGFb-1; assay type: cell-based
Protocol: 3T3 cells were cultured and contractility in the presence of TGFb-1 was measured in control or M825 exposed cells. […] Contractile forces are thought to contribute to increased cancer cell invasion.

UACC melanoma cells = assay: TEM8 antibody efficacy in UACC melanoma model; assay type: in vivo, mice; settings: 15 mg/kg, 3 times per week for 3-4 weeks; treatment initiated at 50 mm^3
Protocol: UACC melanoma cells were cultured and injected subcutaneously into mice. Treatment was initiated with a tumor volume of 50 mm^3, and treatment groups consisted of one of four TEM8 antibodies (M825, M830, M863, and M822), each dosed at 15 mg/kg, 3 times per week for 3-4 weeks.

[5] = tested on: H460 non-small cell lung carcinoma xenograft; assay: M830 alone and with bevacizumab or paclitaxel in the H460 non-small cell lung carcinoma xenograft model; assay type: in vivo, athymic nude mice; settings: combination partner Paclitaxel
Protocol: Animals were monitored for regression responses.
as §1
Cultured H460 cells were harvested during exponential growth and resuspended in phosphate buffered saline at a concentration of 1×10^8 cells/mL. 1.0×10^7 tumor cells were injected subcutaneously into the flank of athymic nude mice. Animals were euthanized when tumors reached the pre-determined volume endpoint of 2000 mm^3 or on the final day (Day 88), whichever came first. […] Each treatment produced a significant survival difference versus controls (P<0.01). The median TTE for controls was 22.8 days, establishing a maximum possible TGD of 65.2 days (286%) for the 88-day study.

FcγRIIIa (CD16a) = FcγRIIIa (CD16a) (Homo sapiens, UniProt P08637); assay: Binding of M830 Fc mutant to FcγRIIIa (ADCC); settings: Fc mutant form compared with M830
FcγRIIIa (CD16a), sequence (P08637 17-254): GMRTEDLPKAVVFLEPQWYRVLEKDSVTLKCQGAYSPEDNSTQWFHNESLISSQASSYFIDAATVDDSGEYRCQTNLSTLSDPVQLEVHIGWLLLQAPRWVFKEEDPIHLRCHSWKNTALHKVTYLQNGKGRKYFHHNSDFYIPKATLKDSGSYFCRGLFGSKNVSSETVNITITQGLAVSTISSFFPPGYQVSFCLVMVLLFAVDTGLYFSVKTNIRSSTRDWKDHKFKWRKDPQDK
Source text: Fc mutations which increase ADCC are known in the art. For example, substitutions in the IgG constant region such as S239D, A330L, and I332E are known to increase binding to the FCy receptor. (see, e.g., Lazar et al., Proc. Natl., Acad. Sci. U.S.A., 103:4005-4010, 2006). In the present example, the M830 Fc S239D:I332E double mutant was generated and confirmed by standard molecular biology techniques (830M: S239D/I332E).

## N.N.[Cl][Pt][Cl] [Cisplatin, cisplatin]
[1]
  outcome compared to vehicle-treated controls: statistically significant survival benefit

## Nc1ccn([C@@H]2O[C@H](CO)[C@@H](O)C2(F)F)c(=O)n1 [gemcitabine]
[1]
  outcome compared to vehicle-treated controls: not statistically different from vehicle-treated controls

## CC[C@H](C)[C@@H]([C@@H](CC(=O)N1CCC[C@H]1[C@H](OC)[C@@H](C)C(=O)N[C@H](C)[C@@H](O)c1ccccc1)OC)N(C)C(=O)[C@@H](NC(=O)[C@@H](NC)C(C)C)C(C)C [MMAE, reference compound] (H-[NMeV]V[Dil][Dolaproine]-X1)
[2]
  effect in OVCAR3 model: No effect

## M825: TEM8 monoclonal antibody (hIgG1); VH SEQ ID NO:1, VL SEQ ID NO:2 [Antibody M825]
hTEM8-AP
  Kd: 0.0591 nM
[3]; 5 mg/kg
  AUCI: 1310.519 µg·h/mL
  AUCT: 1310.222 µg·h/mL
[3]; 15 mg/kg
  AUCI: 9239.202 µg·h/mL
  AUCT: 8991.767 µg·h/mL
[4]; 5 mg/kg
  AUCI: 1408.345 µg·h/mL
  AUCT: 1408.201 µg·h/mL
[4]; 15 mg/kg
  AUCI: 21649.446 µg·h/mL
  AUCT: 21648.879 µg·h/mL
3T3 fibroblasts
  contractility of activated 3T3 fibroblasts in vitro: block the contractility

B1: M830: TEM8 monoclonal antibody (hIgG1); VH SEQ ID NO:5, VL SEQ ID NO:6 (antibody, V domains shown)
VH: EVQLVESGGGVVQPGRSVRLSCAASGFTFSTYTMHWVRQAPGKGLEWVAIISNDGSNKYYADPVRGRFTISRDNSKNTLYLQMNSLRAEDTAVYYCVRGSSWYRGNWFDPWGQGTLVTVSS
VL: DIQMTQSPSSLSASVGDRVTIACRASQTISRYLNWYQQKPGKAPKLLIYAASSLQSGVSSRFSGSGSGTEFTLTISSLQPEDFATYFCQQTYSPPITFGQGTRLEIKR
modifications: TEM830 mAb VH; TEM830 mAb VL
UACC melanoma cells
  tumor growth in the UACC melanoma model: effective at slowing tumor growth
[5]
  regression (with % Tumor Reduction vs. Vehicle at Day 21): −61%
[1]
  outcome compared to vehicle-treated controls: not statistically different from vehicle-treated controls
hTEM8-AP
  Kd: 1.57 nM
[3]; 5 mg/kg
  AUCI: 2242.485 µg·h/mL
  AUCT: 2242.286 µg·h/mL
[3]; 15 mg/kg
  AUCI: 10692.742 µg·h/mL
  AUCT: 10692.598 µg·h/mL
[4]; 5 mg/kg
  AUCI: 4316.79 µg·h/mL
  AUCT: 4315.918 µg·h/mL
[4]; 15 mg/kg
  AUCI: 23053.875 µg·h/mL
  AUCT: 23052.853 µg·h/mL

B2: M863: TEM8 monoclonal antibody (hIgG1); VH SEQ ID NO:7, VL SEQ ID NO:8 (antibody, V domains shown)
VH: EVQLVETGAEVKKPGASVKVSCKASGYTFTGYYMHWVRQAPGQGLEWMGWINPTSGSTNYAQKFQGRVTMTRDTSISTAYMELSGLRSDDTAVYYCVRDPGSPKWLAFDPWGQGTLVTVSS
VL: B1 VL with M4L, A22T, Q27R, T28A
modifications: TEM863 mAb VH; TEM863 mAb VL
[3]; 5 mg/kg
  AUCI: 1330.847 µg·h/mL
  AUCT: 1330.742 µg·h/mL
[3]; 15 mg/kg
  AUCT: 10721.535 µg·h/mL
[4]; 5 mg/kg
  AUCI: 1425.735 µg·h/mL
  AUCT: 1425.565 µg·h/mL
[4]; 15 mg/kg
  AUCI: 7272.672 µg·h/mL
  AUCT: 7271.7 µg·h/mL

B3: M830 Fc S239D:I332E double mutant: M830 with Fc substitutions S239D and I332E made to increase ADCC (antibody)
heavy: B1 VH
VL: B1 VL
modifications: left off: a dimerising Fc or GST
notes: M830 with Fc substitutions S239D and I332E made to increase ADCC
FcγRIIIa (CD16a)
  binding to FcγRIIIa (CD16a): significantly enhanced binding
